In article PMC3368264:

Target: Leishmania major N5,N10-methylenetetrahydrofolate dehydrogenase/cyclohydrolase (Leishmania major (Friedlin strain))
Assay: SEC; Superdex 200 26/60 in buffer A (50 mM Tris-HCl, 250 mM NaCl, 20 mM imidazole, pH 7.5); main peak at approximately 65 kDa (subunit 31.9 kDa)

## Leishmania major N5,N10-methylenetetrahydrofolate dehydrogenase/cyclohydrolase (enzyme)
  stoichiometry N: 2
